Literature values as cited in article PMC4317646.

Biological target: ADP-G-actin (Saccharomyces cerevisiae) (UniProt P60010)

Sequence of C-Srv2 C-terminal half (P17555 253-526): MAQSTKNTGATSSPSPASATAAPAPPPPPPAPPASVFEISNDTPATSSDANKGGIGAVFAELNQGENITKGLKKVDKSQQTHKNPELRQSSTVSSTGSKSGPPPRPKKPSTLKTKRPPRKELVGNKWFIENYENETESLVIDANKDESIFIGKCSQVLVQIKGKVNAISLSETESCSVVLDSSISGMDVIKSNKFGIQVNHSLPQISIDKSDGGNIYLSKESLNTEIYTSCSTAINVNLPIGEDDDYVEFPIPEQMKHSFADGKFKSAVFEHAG

Kd: 18 nM
Substance: C-Srv2 C-terminal half (from UniProt P17555)
